Measurements published in paper PMC4624675 (2015).

These binders were tested against C-terminal Tandem UBL domain of human USP7 (TUD^USP7), wild type (human) (assay: ITC).
Sequence of C-terminal Tandem UBL domain of human USP7 (TUD^USP7), wild type (human) (chain, as listed by the source): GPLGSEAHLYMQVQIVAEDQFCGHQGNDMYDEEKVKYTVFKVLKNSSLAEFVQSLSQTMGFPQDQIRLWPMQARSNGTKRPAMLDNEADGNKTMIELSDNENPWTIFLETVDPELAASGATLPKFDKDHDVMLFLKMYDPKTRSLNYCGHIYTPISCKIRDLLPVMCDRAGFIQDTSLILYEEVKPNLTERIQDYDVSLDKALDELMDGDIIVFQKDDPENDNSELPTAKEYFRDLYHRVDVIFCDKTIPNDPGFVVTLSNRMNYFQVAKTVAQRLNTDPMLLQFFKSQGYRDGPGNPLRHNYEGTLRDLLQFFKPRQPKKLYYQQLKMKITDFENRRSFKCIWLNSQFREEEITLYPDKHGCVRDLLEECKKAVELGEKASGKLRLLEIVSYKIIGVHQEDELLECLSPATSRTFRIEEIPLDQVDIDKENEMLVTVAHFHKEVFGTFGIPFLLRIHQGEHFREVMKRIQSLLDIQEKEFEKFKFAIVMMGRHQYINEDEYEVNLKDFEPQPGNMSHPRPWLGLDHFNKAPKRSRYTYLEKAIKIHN

Binder	Kd [nM]
TGKGKWKRKSAGGGPSRAGSPRRTSKKTKVEPY [UHRF1 (642–674) (GST pull-down bait)]	1540
KGKGKGKGKGKP [KG-Linker of DNMT1 (GST pull-down bait)]	3720
SGPRGPRKCARKTRHAETSGA [GST-tagged ICP0 (613–633), wild type]	270
